Data on 2 substances can be found in patent publication US20250320281A1.

Holding throughout (experiment): cell-based or functional assay
For assay [1], the target named is HIV-1 Env of pseudovirus MGRM-AG-002 (clade CRF_AG) (HIV-1).
The target in assay [2] is HIV-1 Env of pseudovirus MGRM-F1-023 (HIV-1).
The target in assay [3] is HIV-1 Env of isolate MGRM-D-004 (clade D pseudovirus) (HIV-1).
The target of assay [4] is HIV-1 NL43 envelope glycoprotein (Env) on pseudovirus (HIV-1).
Assay [5] concerns the target HIV-1 Env of pseudovirus MGRM-AG-003 (clade CRF_AG) (HIV-1).
Assay [6] has as its target HIV-1 Env of isolate MGRM-D-001 (clade D pseudovirus) (HIV-1).
Assay [7] deals with HIV-1 Env of isolate LAVIC_18 (HIV-1).
Assay [8] addresses HIV-1 Env of isolate APV_17, clade B, on pseudovirus (HIV-1).
Assay [9] has as its target HIV-1 Env of isolate MGRM-Chronic-B-001, clade B, on pseudovirus (HIV-1).
In assay [10] the target is HIV-1 Env of isolate APV_13, clade B, on pseudovirus (HIV-1).
In assay [11] the target is HIV-1 Env of isolate 92UG046 (clade D pseudovirus) (HIV-1).
Assay [12] has as its target HIV-1 Env of isolate 6535.3 (Acute), clade B, on pseudovirus (HIV-1).
Assay [13] addresses HIV-1 Env of pseudovirus JRFL (HIV-1).
The target in assay [14] is HIV-1 Env of isolate 92BR020, clade B, on pseudovirus (HIV-1).
Assay [15] deals with HIV-1 envelope glycoprotein (Env) of isolate MGRM-A-006, clade A (HIV-1).
In assay [16] the target is HIV-1 Env of isolate MGRM-D-008 (clade D pseudovirus) (HIV-1).
Assay [17] concerns the target HIV-1 Env of pseudovirus MGRM-AE-006 (clade CRF01_AE) (HIV-1).
In assay [18] the target is HIV-1 APV-17 envelope glycoprotein (Env) on pseudovirus (HIV-1).

Regarding 2F5 (antibody), the IC50 in assay [1] is 0.54 µg/mL; in assay [5], 0.14 µg/mL; in [7] it was more than 50 µg/mL; in assay [17], 0.18 µg/mL. Moreover, the IC50 (µg/ml), pseudovirus neutralization in assay [2] stood at 1.78 µg/mL; in assay [3], 2.3 µg/mL; in assay [6] it was 0.63 µg/mL; in [8], 4.61 µg/mL; in assay [9] it was 0.55 µg/mL; in assay [10] it was 3.81 µg/mL. The IC50 (µg/ml), pseudovirus neutralization was more than 50 µg/mL in assay [11]; 2.76 µg/mL in [12]; 3.54 µg/mL in assay [13]; more than 50 µg/mL in assay [14]; 15.7 µg/mL in assay [15]; more than 50 µg/mL in assay [16]. Further, the IC50, pseudovirus neutralization in assay [4] was found to be 2.41 µg/mL; in assay [18], 2 µg/mL.
For the substance 1495_C14 (PGC14) (antibody), the IC50 in [1], in assay [5], in assay [7] and in assay [17] was more than 50 µg/mL in each case. Besides, the IC50 (µg/ml), pseudovirus neutralization in assay [2], in [3], in assay [6], in assay [8], in [9] and in [10] was more than 50 µg/mL each time. Besides, the IC50 (µg/ml), pseudovirus neutralization in assay [11] was more than 50 µg/mL; in [12], 35 µg/mL; in assay [13], more than 50 µg/mL; in assay [14], 4 µg/mL; in assay [15], more than 50 µg/mL; in assay [16], more than 50 µg/mL. The IC50, pseudovirus neutralization in assay [4] was 0.373 µg/mL; in assay [18] it was more than 50 µg/mL.
